Measurements published in patent publication US20210095028A1 (NANJING LEGEND BIOTECH, published 2021).
Where a chain is given by its changes, count along the chain named.

T1: human TIGIT over-expressed on cells (human, UniProt Q495A1 22-244)
T1 construct: also called CHO-K1/human TIGIT cells; CHO cells expressing human TIGIT
T1 sequence: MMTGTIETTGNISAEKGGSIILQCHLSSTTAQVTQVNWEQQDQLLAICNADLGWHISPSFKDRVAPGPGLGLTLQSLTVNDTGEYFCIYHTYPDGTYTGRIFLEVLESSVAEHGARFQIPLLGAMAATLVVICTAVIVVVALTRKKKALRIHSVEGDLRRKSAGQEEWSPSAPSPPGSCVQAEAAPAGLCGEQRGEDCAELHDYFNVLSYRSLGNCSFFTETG

T2: Human TIGIT protein with HIS tag (human, UniProt Q495A1 22-141)
T2 construct: A soluble analyte is probably only the extracellular part; also called human TIGIT recombinant protein; not shown: HIS tag
T2 sequence: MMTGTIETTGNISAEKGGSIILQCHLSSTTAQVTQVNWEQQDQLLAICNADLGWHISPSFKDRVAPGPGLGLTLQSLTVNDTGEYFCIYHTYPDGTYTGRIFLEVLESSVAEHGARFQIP

B1: 48B5G4E12 (antibody, V domains shown)
VH: QVQLQQPGAELVKPGASVKMSCKASGYTFTSYNMHWVKQTPGQGLEWIGGIYPGNGATSYNQKFKGKATLTADKSSSTAYMQLSSLTSEDSAVYYCARSGLRAMDYWGQGTSVTVSS
VL: QIVLTQSPAIMSASPGEKVTMTCSASSSVSYMYWYQQKTGSSPRLLIYDTSNLASGVPVRFSGSGSGTSYSLTISRMEAEDAATYYCQQWSSYPYTFGGGTKLEIK
notes: Mouse monoclonal antibody; also called mouse anti-human TIGIT monoclonal antibody 48B5G4E12
B2: 70A11A8E6 (antibody, V domains shown)
VH: DVQLQESGPGLVKPSQSLSLTCTVTGYSITSDYAWNWIRQFPGNKLEWMGYIIYSGSTSYNPSLKSRISITRDTSKNQFFLQLNSVTTEDTATYYCARGWFRRPDYWGQGTTLTVSS
VL: DIVMTQSHEFMSTSLGDRVSITCKASQDVSTAVAWHQQKPGQSPKQLIYSASYRYTGVPDRFTGSGSGTDFTFTISNMQAEDLAVYYCQQHYSVPLTFGAGTKLELK
notes: Mouse monoclonal antibody; also called mouse anti-human TIGIT monoclonal antibody 70A11A8E6
B3: 8F2D8E7 (antibody, V domains shown)
VH: QVQLQQSGAELVKPGASVKLSCKTSGYTFTSYWIQWIKQRPGQGLGWIGEIFPGTGTTYYNEKFKGKATLTIDTSSSTAYMQLSSLTSEDSAVYSCARSRDGKVVDYWGQGTSVTVSS
VL: DVQMTQTTSSLSASLGDRVTISCRASQDISNFLNWYQQRPDGTVKLLIYYTSKLHSGVPSRFSGSGSGTDYSLTIRNLEKEDIATYFCQQGNTPPYTFGGGTKLEIK
notes: Mouse monoclonal antibody; also called mouse anti-human TIGIT monoclonal antibody 8F2D8E7
B4: 11D8E12A4 (antibody, V domains shown)
VH: EVLLQQSGPELVKPGASVKIPCKASGYTFTDYNMDWVKQSHGKSLEWIGDINPNNGGTIYNQKFKGKATLTVDKSSSTAYMELRSLTSEDTAVYYCARRWLLLVYTMDYWGQGTSVTVSS
VL: QIVLTQSPAIMSASPGEKVTISCSASSSVSYMYWYQQKPGSSPKPWIYRTSNLASGVPARFSGSGSGTSYSLTISSMEAEDAATYYCHQYHNYPPTFGGGTKLEIK
notes: Mouse monoclonal antibody; also called mouse anti-human TIGIT monoclonal antibody 11D8E12A4
B5: 16F10H12C11 (antibody, V domains shown)
VH: B4 VH with M34I, N55T, T106A, M107V
VL: B4 VL with S30T, P39A, S62G, H88Q, N92S, Y93F
notes: Mouse monoclonal antibody; also called mouse anti-human TIGIT monoclonal antibody 16F10H12C11

Biological target: T1, human TIGIT over-expressed on cells
Assay: FACS, CHO-K1 cells over-expressing human TIGIT
Protocol: The mixture was equilibrated for 30 minutes at room temperature and washed three times with FACS buffer (PBS containing 1% BSA). iFluor labeled goat anti-mouse IgG as the secondary antibody was added and incubated at room temperature for 45 min. Finally, the cells were washed 3 time with PBS, and the signal was read by FACS BD Calibur. Data was analyzed with PRISM™ (GraphPad Software, San Diego, Calif.) using non-linear regression and EC₅₀ values were calculated.

Binder	Bottom (best-fit)	EC50	Top (best-fit)
B1	9.18	3.15 nM	346
B2	11	0.96 nM	263
B3	12.9	1.28 nM	276
B4	8.3	16.3 nM	159
B5	6.83	11.2 nM	188

Biological target: T2, Human TIGIT protein with HIS tag
Assay: SPR Biacore T200; antibody Fc-captured, TIGIT-His analyte
Protocol: Binding kinetics of mouse anti-human TIGIT monoclonal antibodies to human TIGIT were determined using a Surface Plasmon Resonance (SPR) biosensor, BIACORE® T200 (GE Healthcare; Little Chalfont, United Kingdom). […] Each mouse anti-human TIGIT monoclonal antibody was immobilized on the sensor chip through the Fc capture method. Human TIGIT protein with HIS tag was used as the analyte. The dissociation (kd) and association (kₐ) rate constants were obtained using the BIACORE® T200 evaluation software. The apparent equilibrium dissociation constants (KD) were calculated from the ratio of kd over kₐ.

Binder	Kd	koff	kon
B1	11 nM	0.0088 s⁻¹	840000 M⁻¹ s⁻¹
B2	5.2 nM	0.0044 s⁻¹	860000 M⁻¹ s⁻¹
B3	2.6 nM	0.0033 s⁻¹	1.3e+06 M⁻¹ s⁻¹
B4	14 nM	0.0087 s⁻¹	640000 M⁻¹ s⁻¹
B5	18 nM	1.2 s⁻¹	6.7e+07 M⁻¹ s⁻¹

Biological target: T1, human TIGIT over-expressed on cells
Assay: competition FACS, CHO cells expressing human TIGIT; competitor PVR recombinant protein
Protocol: The mixture was equilibrated for 30 minutes at room temperature, and washed three times with FACS buffer (PBS containing 1% BSA). PE/Cy5 Streptavidin secondary antibody was then added to the mixtures and incubated for 15 minutes at room temperature. Subsequently, the cells were washed with FACS buffer and analyzed by flow cytometry. Data was analyzed with PRISM™ (GraphPad Software, San Diego, Calif.) using non-linear regression, and IC₅₀ values were calculated (FIGS. 4A-4B and Table 6).

Binder	Bottom (best-fit)	IC50	Top (best-fit)
B1	64.6	1.6 nM	132
B2	19.6	0.7 nM	113
B3	11.2	0.9 nM	131
B4	21.2	73.5 nM	108
